The values below come from patent US20240391984A1.

Test [1] concerns the target polyclonal IgG (Gammanorm, Octapharma, Sweden). The experiment in a line: SPR (Biacore 8K+), 1:1 kinetic fit; summary table, differs from Table 10. (In SPR one partner is held on a chip, and binding of the other changes the refractive index at the surface.)
Test [2] has the same target. The experiment in a line: SPR (Biacore 8K+), variant amine-coupled to CM5, Gammanorm as analyte, steady state fit.
Test [3] has the same target. Briefly: SPR (Biacore 8K+), variant amine-coupled to CM5, Gammanorm as analyte, 1:1 kinetic fit.
Test [4] shares this target. Briefly: SPR (Biacore 8K+), steady state fit; summary table, differs from Table 10.
Test [5] shares this target. The experiment in a line: SPR (Biacore 8K+), variant amine-coupled to CM5, Gammanorm as analyte, 1:1 kinetic fit. This is another data set of the same source.
Test [6] shares this target. Briefly: SPR (Biacore 8K+), variant amine-coupled to CM5, Gammanorm as analyte, steady state fit. The source holds these as a separate data set.

As a reminder, the Kd is a measure of binding affinity in units of concentration. Read a high Kd as lower affinity.

B1: pAM246 (Protein L C3b domain; N10H, N45H, N60Q) (designed binder)
chain: PKEEVTIKVHLIFADGKIQTAEFKGTFEEATAKAYAYADLLAKEHGEYTADLEDGGYTIQIKFAGKETPETPEE
Turning to B1, the dissociation constant (Kd) in test [1] stood at 15 nM; in test [2], 49 nM; in test [3], 17 nM; in test [4], 47 nM.

B2: pAM245 (Protein L C3 domain; H, H, Q at positions 10, 45, 60) (designed binder)
chain: PKEEVTIKVHLIFADGKIQTAEFKGTFEEATAKAYAYANLLAKEHGEYTADLEDGGNTIQIKFAGKETPETPEE
On to B2, for which the Kd in test [1] turned out to be 54 nM; in test [2], 134 nM; in test [3] it was 65 nM; in test [4], 118 nM.

B3: pAM114 (wt B3 domain of Protein L) (protein)
chain: PKEEVTIKANLIYADGKTQTAEFKGTFEEATAEAYRYADLLAKENGKYTVDVADKGYTLNIKFAGKEKTPEE
Consider B3, for which the Kd in test [5] is 12 nM; in test [2], 46 nM; in test [3] it was 11 nM; in test [6] it was 45 nM.
